Laboratory results: PMC3185043

Tests used:
Assay in all cases: pull-down SILAC MS
[1] = test system: MBD2 (U937 nuclear extract) (Homo sapiens); conditions: 5-methylcytosine at CpG (M.SssI); EMSA: 20 mM HEPES pH 7.9, 1 mM EDTA, 3 mM MgCl2, 10 mM beta-mercaptoethanol, 10% glycerol, 0.1% Triton X-100, 2 ug BSA, 10 ng poly(dI-dC), 30 min on ice …; scale: H/L ratio methylated/unmethylated
[2] = test system: MeCP2 (U937 nuclear extract) (Homo sapiens); conditions: reverse ratio 0.18572; 5-methylcytosine at CpG (M.SssI); EMSA: 20 mM HEPES pH 7.9, 1 mM EDTA, 3 mM MgCl2, 10 mM beta-mercaptoethanol, 10% glycerol, 0.1% Triton X-100, 2 ug BSA, 10 ng poly(dI-dC), 30 min on ice …; scale: H/L ratio methylated/unmethylated
[3] = test system: RBP-J (U937 nuclear extract) (Homo sapiens); conditions: reverse ratio 0.11974; 5-methylcytosine at CpG (M.SssI); EMSA: 20 mM HEPES pH 7.9, 1 mM EDTA, 3 mM MgCl2, 10 mM beta-mercaptoethanol, 10% glycerol, 0.1% Triton X-100, 2 ug BSA, 10 ng poly(dI-dC), 30 min on ice …; scale: H/L ratio methylated/unmethylated

GSTP1 CpG-island multimer, methylated (pull-down)
binding signal [1]: 12.9
binding signal [2]: 4.54
binding signal [3]: 6.21
